The supplement of paper PMC7877785
± gives the uncertainty stated by the source.

Experiment: self-splicing fitness, log relative to wild type (ln ratio); higher = more splicing; Tetrahymena group I intron in knt gene, E. coli kanamycin selection, DiMSum; sequences stand for … in CUCUCU…GGAGGGAAAAGUUAUCAGGCAUGCACCUGGUAGCUAGUCUUUAAACCAAUAGAUUGCAUCGGUUUAAAAGGCAAGACCGUCAAAUUGCGGGAAAGGGGUCAACAGCCGUUCAGUACCAAGUCUCAGGGGAAACUUUGAGAUGGCCUUGCAAAGGGUAUGGUAAUAAGCUGACGGACAUGGUCCUAACCACGCAGCCAAGUCCUAAGUCAACAGAUCUUCUGUUGAUAUGGAUGCAGUUCACAGACUAAAUGUCGGUCGGGGAAGAUGUAUUCUUCUCAUAAGAUAUAGUCGGACCUCUCCUUAAUGGGAGCUAGCGGAUGAAGUGAUGCAACACUGGAGCCGCUGGGAACUAAUUUGUAUGCGAAAGUAUAUUGAUUAGUUUUGGAGUACUCGUGGUCG
How it was run: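 Six replicate transformations of E. coli BL21(DE3) with a pET-22b(+) library were grown overnight at 37°C or 30°C. The library randomised all eight P1ex-region intron nucleotides, the intron lying in the knt kanamycin-resistance gene, and plates were LB agar with or without 25 μg/mL kanamycin plus 100 μg/mL carbenicillin, 50 μM IPTG and 0.2% rhamnose. Pooled colonies were amplicon-sequenced on an Illumina HiSeq 2500, and fitness is the DiMSum error-weighted combination of wild-type-normalised replicate fold changes, kanamycin versus none.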

Row | Sequence | self-splicing fitness (ln) (30 °C) | self-splicing fitness (ln) (37 °C)
1 | AGUAAGCAAUAUUACGGUUA | -0.833 ± 0.11 | -0.477 ± 0.092
2 | AGUAAGCAAUAUUACGGUUC | -2.9 ± 0.19 | -1.55 ± 0.44
3 | AGUAAGCAAUAUUACGGUUG | -3.09 ± 0.23 | -2.51 ± 0.25
4 | AGUAAGCAAUAUUACGUAAA | -3.2 ± 0.34 | -1.75 ± 0.21
5 | AGUAAGCAAUAUUACGUAAC | -2.48 ± 0.23 | –
6 | AGUAAGCAAUAUUACGUACA | -0.932 ± 0.1 | 0.0596 ± 0.13
7 | AGUAAGCAAUAUUACGUACU | -2.29 ± 0.12 | -1.76 ± 0.18
8 | AGUAAGCAAUAUUACGUGAG | -3.88 ± 0.15 | -1.07 ± 0.11
9 | AGUCAGCAAUAUUACGAAGU | -1.48 ± 0.084 | -0.0211 ± 0.096
10 | AGUCAGCAAUAUUACGACAG | -0.781 ± 0.12 | -0.399 ± 0.14
11 | AGUCAGCAAUAUUACGACCC | -0.401 ± 0.19 | -0.72 ± 0.29
12 | AGUCAGCAAUAUUACGAGGU | -3.4 ± 0.26 | -2.62 ± 0.24
13 | AGUCAGCAAUAUUACGAUAU | -0.289 ± 0.096 | 0.475 ± 0.11
14 | AGUCAGCAAUAUUACGAUUA | 0.011 ± 0.11 | -0.381 ± 0.15
15 | AGUCAGCAAUAUUACGCAUU | -0.401 ± 0.069 | -0.421 ± 0.085
16 | AGUCAGCAAUAUUACGCCUA | -0.754 ± 0.12 | 0.18 ± 0.15
17 | AGUCAGCAAUAUUACGCGGU | -2.25 ± 0.15 | -1.45 ± 0.11
18 | AGUCAGCAAUAUUACGCUCC | -0.39 ± 0.17 | -0.919 ± 0.16
19 | AGUCAGCAAUAUUACGGCAU | 0.126 ± 0.066 | -0.106 ± 0.074
20 | AGUCAGCAAUAUUACGGCGU | 0.0847 ± 0.073 | 0.74 ± 0.096
21 | AGUCAGCAAUAUUACGGUCC | -0.805 ± 0.096 | 0.201 ± 0.13
22 | AGUCAGCAAUAUUACGUACC | -0.711 ± 0.15 | 0.605 ± 0.21
23 | AGUCAGCAAUAUUACGUACU | -1.92 ± 0.13 | -0.881 ± 0.13
24 | AGUCAGCAAUAUUACGUGCC | -1.02 ± 0.077 | 0.0632 ± 0.095

Row | Sequence | self-splicing fitness (ln) (30 °C) | self-splicing fitness (ln) (37 °C)
25 | AGUCAGCAAUAUUACGUGGA | -2.73 ± 0.19 | -2.41 ± 0.15
26 | AGUGAGCAAUAUUACGAACC | -0.739 ± 0.16 | -0.869 ± 0.24
27 | AGUGAGCAAUAUUACGACUC | -3.04 ± 0.37 | –
28 | AGUGAGCAAUAUUACGAGAC | – | -2.17 ± 0.24
29 | AGUGAGCAAUAUUACGAUAG | -2.34 ± 0.17 | -2.18 ± 0.34
30 | AGUGAGCAAUAUUACGCUAC | -2.96 ± 0.16 | -2.3 ± 0.23
31 | AGUGAGCAAUAUUACGGAGC | -1.89 ± 0.18 | -3.36 ± 0.33
32 | AGUGAGCAAUAUUACGGAGG | -3.77 ± 0.28 | -2.67 ± 0.27
33 | AGUGAGCAAUAUUACGGCCG | -3.46 ± 0.29 | -1.59 ± 0.24
34 | AGUGAGCAAUAUUACGGCUC | -4.11 ± 0.26 | -2.03 ± 0.2
35 | AGUGAGCAAUAUUACGGGGU | -4.06 ± 0.25 | -2.67 ± 0.21
36 | AGUGAGCAAUAUUACGGGUU | -2.39 ± 0.26 | -2.35 ± 0.33
37 | AGUGAGCAAUAUUACGGUCG | -3.55 ± 0.24 | -1.97 ± 0.18
38 | AGUGAGCAAUAUUACGGUGA | -3.03 ± 0.31 | -2.96 ± 0.3
39 | AGUGAGCAAUAUUACGGUGG | -3.06 ± 0.19 | -2.69 ± 0.3
40 | AGUGAGCAAUAUUACGGUGU | -4.01 ± 0.29 | -3.73 ± 0.34
41 | AGUGAGCAAUAUUACGUAAA | -3.58 ± 0.22 | -1.3 ± 0.18
42 | AGUUAGCAAUAUUACGAAUU | -1.62 ± 0.11 | -0.649 ± 0.12
43 | AGUUAGCAAUAUUACGACAG | -0.556 ± 0.098 | -0.495 ± 0.12
44 | AGUUAGCAAUAUUACGACCU | -0.34 ± 0.09 | -0.469 ± 0.097
45 | AGUUAGCAAUAUUACGACGC | -0.0216 ± 0.11 | 0.486 ± 0.13
46 | AGUUAGCAAUAUUACGAUGU | -1.48 ± 0.096 | -0.307 ± 0.11
47 | AGUUAGCAAUAUUACGAUUU | 0.0118 ± 0.094 | 0.175 ± 0.11
48 | AGUUAGCAAUAUUACGCCUG | -1.74 ± 0.21 | -1.46 ± 0.25

Row | Sequence | self-splicing fitness (ln) (30 °C) | self-splicing fitness (ln) (37 °C)
49 | AGUUAGCAAUAUUACGCGGG | -4.1 ± 0.33 | -0.533 ± 0.15
50 | AGUUAGCAAUAUUACGCUCG | -0.0767 ± 0.16 | -0.636 ± 0.19
51 | AGUUAGCAAUAUUACGGCAA | -0.82 ± 0.08 | 0.163 ± 0.11
52 | AGUUAGCAAUAUUACGGCUA | -0.379 ± 0.11 | -0.127 ± 0.11
53 | AGUUAGCAAUAUUACGGGCU | -3.01 ± 0.28 | -1.79 ± 0.24
54 | AGUUAGCAAUAUUACGGUAC | -1.49 ± 0.2 | -2.76 ± 0.28
55 | AGUUAGCAAUAUUACGGUCU | -0.221 ± 0.081 | -0.0741 ± 0.087
56 | AGUUAGCAAUAUUACGGUGC | -3.15 ± 0.17 | -2.44 ± 0.2
57 | AGUUAGCAAUAUUACGUAUG | -1.57 ± 0.15 | -2.67 ± 0.29
58 | AGUUAGCAAUAUUACGUCAA | -3.02 ± 0.26 | -0.718 ± 0.13
59 | AGUUAGCAAUAUUACGUGCU | -2.35 ± 0.14 | -1.78 ± 0.21
60 | AUAAAGCAAUAUUACGAAAG | -2.01 ± 0.12 | -1.25 ± 0.14
61 | AUAAAGCAAUAUUACGACCG | -0.25 ± 0.13 | -0.14 ± 0.18
62 | AUAAAGCAAUAUUACGAGCU | -0.379 ± 0.06 | 0.246 ± 0.086
63 | AUAAAGCAAUAUUACGAGUC | -3.52 ± 0.13 | -2.07 ± 0.14
64 | AUAAAGCAAUAUUACGCGGG | -2.55 ± 0.13 | -1.4 ± 0.16
65 | AUAAAGCAAUAUUACGCGGU | -1.8 ± 0.12 | -0.6 ± 0.11
66 | AUAAAGCAAUAUUACGCUAG | -0.761 ± 0.1 | -0.165 ± 0.12
67 | AUAAAGCAAUAUUACGGAGU | -0.717 ± 0.072 | -0.598 ± 0.088
68 | AUAAAGCAAUAUUACGGAUU | -1.15 ± 0.077 | 0.0214 ± 0.091
69 | AUAAAGCAAUAUUACGGCCA | 0.232 ± 0.11 | 0.15 ± 0.13
70 | AUAAAGCAAUAUUACGGCUA | 0.756 ± 0.14 | -0.15 ± 0.14
71 | AUAAAGCAAUAUUACGGCUC | 0.203 ± 0.11 | 1.04 ± 0.15
72 | AUAAAGCAAUAUUACGGUAU | -0.836 ± 0.068 | -0.0795 ± 0.1

Row | Sequence | self-splicing fitness (ln) (30 °C) | self-splicing fitness (ln) (37 °C)
73 | AUAAAGCAAUAUUACGGUUG | -1.68 ± 0.1 | -1.36 ± 0.15
74 | AUAAAGCAAUAUUACGUCUG | -0.676 ± 0.079 | -0.47 ± 0.11
75 | AUAAAGCAAUAUUACGUGAA | -1.39 ± 0.094 | -0.724 ± 0.12
76 | AUAAAGCAAUAUUACGUGCG | -0.493 ± 0.083 | 0.137 ± 0.1
77 | AUACAGCAAUAUUACGAAAG | -2.62 ± 0.19 | -0.9 ± 0.17
78 | AUACAGCAAUAUUACGAACC | -2.11 ± 0.15 | -0.458 ± 0.16
79 | AUACAGCAAUAUUACGAACU | -0.142 ± 0.079 | 0.0661 ± 0.099
80 | AUACAGCAAUAUUACGAAGU | -3.31 ± 0.12 | -1.22 ± 0.11
81 | AUACAGCAAUAUUACGAAUC | -4.08 ± 0.25 | -2.3 ± 0.18
82 | AUACAGCAAUAUUACGACAA | -1.19 ± 0.093 | -0.929 ± 0.12
83 | AUACAGCAAUAUUACGACGA | -1.84 ± 0.13 | -0.966 ± 0.13
84 | AUACAGCAAUAUUACGACGG | -3.2 ± 0.15 | -0.835 ± 0.13
85 | AUACAGCAAUAUUACGAGUU | -2.65 ± 0.14 | -0.493 ± 0.1
86 | AUACAGCAAUAUUACGAUUC | -2.06 ± 0.1 | -0.118 ± 0.096
87 | AUACAGCAAUAUUACGCAAG | -2.28 ± 0.12 | -1.49 ± 0.13
88 | AUACAGCAAUAUUACGCCAU | -2.01 ± 0.13 | -0.757 ± 0.14
89 | AUACAGCAAUAUUACGCCGG | -2.34 ± 0.17 | -1.38 ± 0.21
90 | AUACAGCAAUAUUACGCGGA | -2.02 ± 0.17 | -1.74 ± 0.14
91 | AUACAGCAAUAUUACGCUAA | -1.96 ± 0.12 | -1.01 ± 0.12
92 | AUACAGCAAUAUUACGCUUC | -3.06 ± 0.17 | -3.25 ± 0.24
93 | AUACAGCAAUAUUACGGAGA | -3.81 ± 0.33 | -0.736 ± 0.27
94 | AUACAGCAAUAUUACGGAUA | -2.52 ± 0.14 | -2.38 ± 0.17
95 | AUACAGCAAUAUUACGGCCA | -0.834 ± 0.11 | -0.783 ± 0.1
96 | AUACAGCAAUAUUACGGGAU | -0.898 ± 0.076 | -0.747 ± 0.1
